According to patent publication US20230333108, “APTAMER-BASED POINT-OF-CARE ASSAY DEVICES AND METHODS” (The Regents of the University of California, published 2023):

B1: S-aptamer (anti-S protein aptamer) (ssDNA)
DNA: TTTTTTCAGCACCGACCTTGTGCTTTGGGAGTGCTGGTCCAAGGGCGTTAATGGACA
B2: N-aptamer (anti-N protein aptamer) (ssDNA)
DNA: TTTTTTGCAATGGTACGGTACTTCCGGATGCGGAAACTGGCTAATTGGTGAGGCTGGGGCGGTCGTGCAGCAAAAGTGCACGCTACTTTGCTAA

How the values were obtained:
[1] = biological target: SARS-CoV-2 spike (S) protein (SARS-CoV-2, UniProt P0DTC2 P0DTC2:14-1213); test: competition; details: tags: Sino Biological; label: 5'-biotin
[2] = biological target: SARS-CoV-2 nucleocapsid (N) protein (SARS-CoV-2, UniProt P0DTC9 P0DTC9:1-419); test: competition; details: tags: Sino Biological; label: 5'-biotin

| Binder | binding result [1] | binding result [2] |
| --- | --- | --- |
| B1 | binds |  |
| B2 |  | binds |
